Data as given in patent publication US20250388680A1 (KITE PHARMA, published 2025).
Numbering of substitutions follows the chain as printed. Values belong to the binder of their own block, whether it stands above or below them.

Key:
[1] = biological target: T1, huCLEC12B (Acro Biosystems) (human, UniProt Q2HXU8 65-276, limits assumed); assay: Octet BLI, mAb captured on FAB2G anti-human Fab biosensors
T1 construct: Bought protein
T1 sequence (looked up): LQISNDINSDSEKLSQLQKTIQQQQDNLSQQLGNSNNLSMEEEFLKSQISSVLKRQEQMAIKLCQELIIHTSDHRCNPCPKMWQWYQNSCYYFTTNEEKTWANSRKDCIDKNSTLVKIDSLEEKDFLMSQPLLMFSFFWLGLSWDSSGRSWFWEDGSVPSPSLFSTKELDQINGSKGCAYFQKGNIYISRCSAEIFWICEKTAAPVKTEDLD
Description: (§1) Octet Off-Rate Ranking Assay: Alternate binding assay was conducted with the recombinant antibodies confirming specific binding to CLL1 without binding to CLEC12B. Briefly, purified mAbs were individually captured on FAB2G anti-human Fab biosensors. The mAb-captured biosensors were dipped in wells containing antigen and the binding response was measured. Biosensors were later dipped in buffer wells to observe the dissociation of bound antigen from captured mAb and were regenerated and similar binding kinetic assays were performed for subsequent antigens. The binding kinetics of fifteen mAbs were illustrated in Table 2.

[2] = biological target: T2, muIgG2a monoFc huCLL1 (+) (human); assay: ELISA, plate coated with antigen 1 ug/mL; antibody 10.00 ug/mL in well
T2 construct: ELISA coating antigen
Description: ELISA Validation: Antibodies identified by the Beacon screen were made recombinantly and validated for binding to CLL1. High-binding ELISA plate was coated with muIgG2a monoFc huCLL1 (+) (1 μg/mL) overnight at 4° C. After removal of the antigen, the wells were blocked with 2% BSA in 1×PBS for 1 hour. The BSA was then removed and the primary antibody was added to the wells in 1×PBS solution, incubated at RT for 1 hour. The wells were washed four times with 1×PBS. HRP conjugated secondary antibody was added in blocking solution, and was incubated at RT for 45 minutes. The wells were washed five times with 1×PBS. TMB substrate was added, followed by stop solution. The plates were read at 450 nm.

muIgG2a huCLL1 [3] = biological target: T3, muIgG2a huCLL1 (human, UniProt Q5QGZ9 65-265, limits assumed); assay: Octet BLI, mAb captured on FAB2G biosensor, antigen in solution
T3 construct: It may be the same construct as muIgG2a monoFc huCLL1 (+) of the ELISA; also called huCLL1.mIgG2a; not shown: mouse IgG2a part
T3 sequence: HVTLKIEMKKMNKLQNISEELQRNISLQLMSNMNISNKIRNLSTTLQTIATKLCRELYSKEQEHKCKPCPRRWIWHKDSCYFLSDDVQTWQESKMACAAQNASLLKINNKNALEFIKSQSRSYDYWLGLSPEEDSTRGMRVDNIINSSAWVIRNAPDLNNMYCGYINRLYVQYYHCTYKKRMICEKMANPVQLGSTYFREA
Description: as §1

huIgG1 huCLL1 [4] = biological target: T4, huIgG1 huCLL1 (human, UniProt Q5QGZ9 65-265, limits assumed); assay: as above
T4 construct: not shown: human IgG1 part
T4 sequence: T3 sequence
Description: as §1

huIgG1 huCLL1 [5] = biological target: T4, huIgG1 huCLL1; assay: Octet BLI, mAb captured on FAB2G biosensor, antigen in solution; antigen huCLL1 fused to huIgG1 Fc
Description: as §1

muIgG2a huCLL1 [6] = biological target: T3, muIgG2a huCLL1; assay: Octet BLI, mAb captured on FAB2G biosensor, antigen in solution; antigen huCLL1 fused to muIgG2a Fc
Description: as §1

B1: D2D88607-9226 (antibody, V domains shown)
VH: QVQLQQWGAGLLKPSETLSLTCAVYGGSFSGYYWSWIRQPPGKGLEWIGEFNHSGGPNYNPSLKSRVTISTDTSNNQFSLKLSSVTAADTAVYYCARGTTGNYYYYMDVWGKGTTVTVSS
VL: AIQMTQSPSSLSASVGDRVTITCRASQGIRNDLGWYQQKPGKAPKLLIYAASSLQSGVPSRFSGSGSGTDFTLTISSLQPEDFATYYCLQDYIYPPTFGPGTKLEIK
notes: also called mAb_023
- binding result [1]: no binding
- OD 450 nm [2]: 1.75 OD
- Kd (muIgG2a huCLL1 [3]): 0.347 nM
- t½ (muIgG2a huCLL1 [3]): 64.1 min
- Kd (huIgG1 huCLL1 [4]): 2.28 nM
- t½ (huIgG1 huCLL1 [4]): 16.5 min

B2: D2AD88607-5141 (antibody, V domains shown)
VH: QVQLVESGGGVVQPGRSLRLSCAASGFTFSSYGMHWVRQAPGKGLEWVAIISYDGSDKYYADSVKGRFTISRDNSKNTLYLQMNSLRAEDTAVYYCARNYNYYMDVWGKGTTVTVSS
VL: EIVMTQSPATLSLSPGERATLSCRASQSVRSSYLSWYQQKPGQAPRLLIYGTSTRATGIPARFSGSGSGTDFTLTISSLQPEDFAVYYCQQDYNLPLTFGGGTKVEIK
notes: also called mAb_038
- binding result [1]: no binding
- OD 450 nm [2]: 2 OD
- Kd (muIgG2a huCLL1 [3]): 0.766 nM
- t½ (muIgG2a huCLL1 [3]): 54.4 min
- Kd (huIgG1 huCLL1 [4]): 19.9 nM
- t½ (huIgG1 huCLL1 [4]): 2.3 min

B3: D2AD89041-10444 (antibody, V domains shown)
VH: EVQLLESGGGLVQPGGSLRLSCAASGFTFNNYVMAWVRQVPGKGLEWVSGISGSGLITSYAASVKDRFTISRDNSNNTVYLQMKSLRAEDTAVYFCAKEPHVLLDDYMDVWGKGTTVTVSS
VL: EIVLTQSPATLSLSPGERATLSCGASQSVTSSYLAWYQQKPGLAPRLLIYDASNRATGIPDRFSGSGSGTDFTLTISRLEPEDFAVYYCQQYGRSLTFGGGTKVEIK
notes: also called mAb_049
- Kd (huIgG1 huCLL1 [5]): 1120 nM
- Kd (muIgG2a huCLL1 [6]): 3.46 nM
- binding result [1]: no binding
- OD 450 nm [2]: 0.205 OD
- t½ (muIgG2a huCLL1 [3]): 5.4 min
- t½ (huIgG1 huCLL1 [4]): 0 min

More lines, now with the values ahead:

- binding result [1]: no binding
- Kd (muIgG2a huCLL1 [3]): 0.374 nM
- t½ (muIgG2a huCLL1 [3]): 116 min
- Kd (huIgG1 huCLL1 [4]): 3.19 nM
- t½ (huIgG1 huCLL1 [4]): 18.6 min
B4: D2D88607-14083 (antibody, V domains shown)
VH: EVQLLESGGDLVQPGGSLRLSCAASGFTFSSYAMNWVRQAPGKGLEWVSAISGSGVFTYYADSVKGRFTISRDNSENTLYLQMNSLRAEDTAVYYCAKEMQQLIQGDLFDIWGQGTMVTVSS
VL: B3 VL with T30S, S31N, S32N, N54S, R94S, L96H, G100Q, V104L
notes: also called mAb_017

- binding result [1]: no binding
- OD 450 nm [2]: 1.38 OD
- Kd (muIgG2a huCLL1 [3]): 4.29 nM
- t½ (muIgG2a huCLL1 [3]): 83.2 min
- Kd (huIgG1 huCLL1 [4]): 29.4 nM
- t½ (huIgG1 huCLL1 [4]): 9.1 min
B5: D2D88607-15321 (antibody, V domains shown)
VH: EVQLVESGGGLVQPGGSLRLSCAASGFTFSFNDMNWVRQAPGKGLEWVSTISGSGGSTYYADSVKGRFTISRDNSKNTLYLQMNSLRAEDTAVYYCAVTGLYYYYYMDVWGKGTTVTVSS
VL: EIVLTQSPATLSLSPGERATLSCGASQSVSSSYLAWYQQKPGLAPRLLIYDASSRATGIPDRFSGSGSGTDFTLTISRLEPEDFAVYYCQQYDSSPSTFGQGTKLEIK
notes: also called mAb_018

- binding result [1]: no binding
- OD 450 nm [2]: 1.57 OD
- Kd (muIgG2a huCLL1 [3]): 2.98 nM
- t½ (muIgG2a huCLL1 [3]): 7.7 min
- Kd (huIgG1 huCLL1 [4]): 81.1 nM
- t½ (huIgG1 huCLL1 [4]): 0.3 min
B6: D2AD88607-7048 (antibody, V domains shown)
VH: EVQLVESGGGLVQPGGSLRLSCAASGFTFSSYDMHWVRQATGKGLEWVSAIGTAGDKYYLASVKGRFTISRENAKNSLYLQMNSLRAGDTAVYYCVRDSLTGPTVTPYMDVWGKGTTVTVSS
VL: EIVLTQSPDFQSVTPKEKVTITCRASQSIGSGLHWYQQKPDQSPKLLIIYASQSISGVPSRFSGSGSGTDFTLTINSLEAEDAAAYYCHQSSSLPYTFGQGTKLEIK
notes: also called mAb_042
